Measurements: patent US20230331779A1 (SHAANXI MICOT TECHNOLOGY, published 2023)

Target: T1, calcium-sensing receptor (CaSR)
T1 sequence (P41180 whole entry, species assumed, looked up): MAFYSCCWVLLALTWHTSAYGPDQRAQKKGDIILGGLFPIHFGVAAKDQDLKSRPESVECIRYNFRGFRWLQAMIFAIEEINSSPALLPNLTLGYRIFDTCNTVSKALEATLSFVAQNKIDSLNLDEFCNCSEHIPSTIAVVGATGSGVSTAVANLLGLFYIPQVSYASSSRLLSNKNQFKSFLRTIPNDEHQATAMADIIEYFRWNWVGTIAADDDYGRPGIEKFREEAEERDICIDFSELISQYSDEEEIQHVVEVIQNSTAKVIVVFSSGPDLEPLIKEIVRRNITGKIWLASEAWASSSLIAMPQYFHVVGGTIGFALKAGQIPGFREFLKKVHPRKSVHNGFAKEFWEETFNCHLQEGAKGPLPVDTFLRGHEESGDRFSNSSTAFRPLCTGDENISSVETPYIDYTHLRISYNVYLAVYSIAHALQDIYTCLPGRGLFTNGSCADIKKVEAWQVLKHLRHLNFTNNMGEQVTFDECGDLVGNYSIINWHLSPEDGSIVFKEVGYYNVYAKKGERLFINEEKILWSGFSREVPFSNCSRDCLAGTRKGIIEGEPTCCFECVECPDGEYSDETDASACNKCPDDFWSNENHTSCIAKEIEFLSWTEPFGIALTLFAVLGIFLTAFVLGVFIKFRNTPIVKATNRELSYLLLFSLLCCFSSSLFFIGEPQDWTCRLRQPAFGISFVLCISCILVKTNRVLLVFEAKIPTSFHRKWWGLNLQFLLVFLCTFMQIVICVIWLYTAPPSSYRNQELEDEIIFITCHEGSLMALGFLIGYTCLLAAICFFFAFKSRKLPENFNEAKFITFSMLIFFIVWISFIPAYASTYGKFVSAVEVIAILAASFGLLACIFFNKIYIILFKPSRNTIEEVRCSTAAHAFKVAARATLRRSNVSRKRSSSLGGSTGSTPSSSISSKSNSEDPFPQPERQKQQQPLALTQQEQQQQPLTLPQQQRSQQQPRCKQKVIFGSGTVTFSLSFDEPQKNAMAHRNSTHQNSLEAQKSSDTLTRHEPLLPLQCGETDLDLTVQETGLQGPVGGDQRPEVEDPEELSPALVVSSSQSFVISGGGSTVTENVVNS
Assay: cell-based or functional assay

B1: polypeptide of Example 1 (active polypeptide SEQ ID NO: 10) (peptide)
peptide 1: CARRRAR
peptide 2: YXFGGC
modifications: D-Tyr 1; Aib (2-aminoisobutyric acid) 2; D-Phe 3; L-Cys 6 disulfide-bonded to D-Cys 1 of the Y chain; free amino and carboxyl termini (H2N-D-Tyr-Aib-D-Phe-Gly-Gly-L-Cys-OH); N-terminal acetyl (Ac); C-terminal amide (NH2); all residues D-amino acids (Ac-D-Cys-D-Ala-D-Arg-D-Arg-D-Arg-D-Ala-D-Arg-NH2); D-Cys 1 disulfide-bonded to L-Cys 6 of the X chain
EC50 of agonistic activity on HEK293-CaSR cells, HTRF IP-1 competition method, at a Ca2+ concentration of 1.2 mM: 84.7 µM | EC50 of agonistic activity on HEK293-CaSR cells, HTRF IP-1 competition method, in the absence of Ca2+: 980 µM
